The results in this text go back to the supplement of paper PMC9732359.

The series is described as follows: protein stability index of a GFP-peptide fusion (yeast GPS) (PSI 1-4); higher = more stable; sorted into four equal gates, so the index is relative within each strain. In outline:
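Mid-log yeast cultures in leucine-free medium, carrying a pooled plasmid library, were sorted into four equal gates by their GFP/Cherry fluorescence ratio. Each plasmid expressed Cherry along with GFP fused upstream of a tiled 17-residue yeast protein peptide. Plasmids recovered from each gate were PCR-amplified and Illumina-sequenced, with reads assigned to strains by barcodes. The protein stability index was obtained by summing each gate's read frequency weighted by its gate number.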

± gives the uncertainty stated by the source.

Consider LIIRCRVVRPKSLDAET [RPO21], for which the protein stability index by setting is: (doa10∆) 2.35 ± 0.11; (pdr5∆) 2.52 ± 0.09; (san1∆) 2.22 ± 0.13; (ubr1∆) 2.51 ± 0.19.
Consider LIKKAVSVRKHLERNRK [RPS13], for which the protein stability index (doa10∆) turned out to be 3.43 ± 0.26, the protein stability index (pdr5∆) is 3.32 ± 0.11 and the protein stability index (ubr1∆) came to 3.28 ± 0.1.
Take LIKMSRSPPRPPSLKII [PRP28]: the protein stability index runs as follows: (doa10∆) 2.16 ± 0.062; (pdr5∆) 2.3 ± 0.068; (san1∆) 2.3 ± 0.072; (ubr1∆) 1.86 ± 0.052.
The like results for LISDSNINNSSVAEKEE [SWI3] were, in that order, 1.6 ± 0.14, 1.73 ± 0.13, 1.56 ± 0.12 and 1.55 ± 0.11.
Regarding LISNAIYGKKTMVIQDE [ECM29], the protein stability index is 1.58 ± 0.25 (doa10∆), 1.83 ± 0.27 (pdr5∆) and 1.4 ± 0.14 (ubr1∆).
For the sequence LISSSGPIKTPVGACAT [FAS2], the protein stability index by setting is: (doa10∆) 1.76 ± 0.053; (pdr5∆) 1.76 ± 0.11; (san1∆) 1.31 ± 0.098; (ubr1∆) 2.17 ± 0.071.
The like results for LITLFNKGELETQPGCN [RPO31] were, in that order, 2.71 ± 0.1, 3.26 ± 0.083, 2.98 ± 0.097 and 2.94 ± 0.11.
Taken in the same sequence, the figures for LITTYSKLSKNISFYKL [SIN4] were 2.18 ± 0.16, 2.47 ± 0.12, 2.24 ± 0.11 and 2.69 ± 0.072.
Taken in the same sequence, the figures for LKAKNQEEEGELEHLTK [DSN1] were 3.42 ± 0.076, 3.35 ± 0.066, 3.31 ± 0.047 and 3.39 ± 0.047.
Sequence LKDIVGQTSRTVTPAPN [ITC1] registered a protein stability index (doa10∆) of 2.97 ± 0.064, a protein stability index (pdr5∆) of 3 ± 0.041, a protein stability index (san1∆) of 2.9 ± 0.049 and a protein stability index (ubr1∆) of 2.95 ± 0.044.
Taken in the same sequence, the figures for LKDLMDLCDVVESKFTE [RPC19] were 3.61 ± 0.2, 3.5 ± 0.11, 3.27 ± 0.11 and 3.26 ± 0.12.
With LKDSKDFDESLKYLDDL [RPN9], the protein stability index by setting is: (doa10∆) 3.02 ± 0.21; (pdr5∆) 3.21 ± 0.14; (ubr1∆) 2.86 ± 0.17.
Consider LKFNHGNYSHLMEKNRI [REC8], for which the protein stability index runs as follows: (doa10∆) 2.06 ± 0.073; (pdr5∆) 2.47 ± 0.056; (san1∆) 2.28 ± 0.064; (ubr1∆) 2.52 ± 0.052.
For the sequence LKGKINNEMKSLQRSKS [SMC1], the protein stability index by setting is: (pdr5∆) 3.34 ± 0.19; (san1∆) 3.11 ± 0.2; (ubr1∆) 3.44 ± 0.099.
As for LKHYNGYDINYISKIGE [SWI1], the protein stability index reads like this: (doa10∆) 2.81 ± 0.056; (pdr5∆) 2.71 ± 0.049; (san1∆) 2.07 ± 0.066; (ubr1∆) 2.62 ± 0.053.
For the sequence LKIFKIFCIDLEVFHHF [SRB8], the protein stability index (doa10∆) amounted to 1.57 ± 0.069, the protein stability index (pdr5∆) was 2.23 ± 0.1, the protein stability index (san1∆) worked out at 1.67 ± 0.1 and the protein stability index (ubr1∆) is 2.53 ± 0.092.
Taken in the same sequence, the figures for LKIHQSHLVVPYCPIAS [YMR129W/POM152] were 1.25 ± 0.063, 1.29 ± 0.061, 1.24 ± 0.12 and 1.28 ± 0.035.
LKIIHTSVWAGQKRLSQ [PRP8]: the protein stability index was found to be 1.36 ± 0.15 (doa10∆), 1.31 ± 0.12 (pdr5∆) and 1.48 ± 0.23 (ubr1∆).
Take LKKELKLLAKELEEQES [SMC2]: the protein stability index is 2.81 ± 0.088 (doa10∆), 3.14 ± 0.063 (pdr5∆), 2.9 ± 0.09 (san1∆) and 3.31 ± 0.07 (ubr1∆).
The like results for LKKKVVDPFTRKEWFDI [RPS1B] were, in that order, 2.97 ± 0.075, 3.18 ± 0.071, 3.18 ± 0.045 and 2.88 ± 0.049.
The like results for LKKLQSDIESANNQEYD [SMC1] were, in that order, 3.19 ± 0.076, 3.2 ± 0.097, 3.16 ± 0.062 and 3.13 ± 0.076.
Taken in the same sequence, the figures for LKLPLEINYAFSMDEEF [SIR3] were 2.13 ± 0.07, 2.18 ± 0.058, 2.73 ± 0.056 and 2.2 ± 0.048.
LKNKKEIYRISFQLSKI [RPS9A]: the protein stability index (doa10∆) amounted to 3.03 ± 0.12, the protein stability index (pdr5∆) turned out to be 3.09 ± 0.084, the protein stability index (san1∆) turned out to be 3.1 ± 0.089 and the protein stability index (ubr1∆) came out at 3.2 ± 0.058.
Taken in the same sequence, the figures for LKNVEETQEIKENDTVM [ESC2] were 2.86 ± 0.097, 3 ± 0.075, 2.92 ± 0.14 and 3.16 ± 0.074.
Turning to LKPEIEKLTSKSLDEQL [LRP1], the protein stability index runs as follows: (doa10∆) 3.22 ± 0.083; (pdr5∆) 3.26 ± 0.07; (san1∆) 2.85 ± 0.077; (ubr1∆) 2.88 ± 0.063.
As for LKSFTESTAGSASTSAT [ECM29], the protein stability index runs as follows: (doa10∆) 2.82 ± 0.067; (pdr5∆) 3.14 ± 0.061; (san1∆) 3.06 ± 0.053; (ubr1∆) 3.15 ± 0.04.
In the case of LKSGLPLSGLLFKNYRF [YMR129W/POM152], the protein stability index reads like this: (doa10∆) 3.65 ± 0.18; (pdr5∆) 2.52 ± 0.2; (san1∆) 3.63 ± 0.057.
For LKSIESLKLENSDLEGK [SMC2], the protein stability index is, setting by setting: (doa10∆) 3.07 ± 0.13; (pdr5∆) 2.8 ± 0.099; (san1∆) 3.39 ± 0.17; (ubr1∆) 2.99 ± 0.12.
For the sequence LKTEKIFKEINEHSTSY [FAS1], the protein stability index is 3.29 ± 0.22 (doa10∆) and 3.48 ± 0.2 (pdr5∆).
On to LKVQKLSRPSLPKIKTV [RPL35A], for which the protein stability index reads like this: (doa10∆) 2.41 ± 0.062; (pdr5∆) 3.11 ± 0.072; (san1∆) 3.17 ± 0.057; (ubr1∆) 3.17 ± 0.059.
The like results for LKYPELSIKNSFIINFI [NUT1] were, in that order, 1.99 ± 0.062, 2 ± 0.045, 2.13 ± 0.076 and 1.94 ± 0.036.
LLALRERRMQVTAEDFK [RPT2]: the protein stability index was determined as 2.79 ± 0.13 (doa10∆), 2.8 ± 0.17 (pdr5∆) and 2.89 ± 0.11 (san1∆).
Regarding LLFIVGQVAIKTLVYLE [YCS4], the protein stability index worked out at 1.74 ± 0.2 (pdr5∆) and 3.18 ± 0.1 (ubr1∆).
On to LLFKARLQQQQAQAQAQ [GAL11], for which the protein stability index was found to be 1.3 ± 0.081 (doa10∆), 1.59 ± 0.075 (pdr5∆), 1.3 ± 0.14 (san1∆) and 1.5 ± 0.056 (ubr1∆).
Consider LLGEGESKLKIDPDTKA [RPB11], for which the protein stability index is 2.93 ± 0.19 (doa10∆) and 3.14 ± 0.24 (ubr1∆).
Consider LLIADSRRPEPKKFGGK [RPS16A], for which the protein stability index is, setting by setting: (doa10∆) 3 ± 0.091; (pdr5∆) 3.12 ± 0.077; (san1∆) 3.23 ± 0.065; (ubr1∆) 3.07 ± 0.05.
With LLINTNFNKFFKIWHGE [PCI8], the protein stability index runs as follows: (doa10∆) 1.37 ± 0.04; (pdr5∆) 1.38 ± 0.04; (san1∆) 1.57 ± 0.061; (ubr1∆) 1.37 ± 0.044.
